In patent publication US20240425885 one finds activity (1-depletion score) data, which are given here for four sequences.

In the data set the test system is T1, OMNI-90 (metagenomic, unknown).
T1 sequence: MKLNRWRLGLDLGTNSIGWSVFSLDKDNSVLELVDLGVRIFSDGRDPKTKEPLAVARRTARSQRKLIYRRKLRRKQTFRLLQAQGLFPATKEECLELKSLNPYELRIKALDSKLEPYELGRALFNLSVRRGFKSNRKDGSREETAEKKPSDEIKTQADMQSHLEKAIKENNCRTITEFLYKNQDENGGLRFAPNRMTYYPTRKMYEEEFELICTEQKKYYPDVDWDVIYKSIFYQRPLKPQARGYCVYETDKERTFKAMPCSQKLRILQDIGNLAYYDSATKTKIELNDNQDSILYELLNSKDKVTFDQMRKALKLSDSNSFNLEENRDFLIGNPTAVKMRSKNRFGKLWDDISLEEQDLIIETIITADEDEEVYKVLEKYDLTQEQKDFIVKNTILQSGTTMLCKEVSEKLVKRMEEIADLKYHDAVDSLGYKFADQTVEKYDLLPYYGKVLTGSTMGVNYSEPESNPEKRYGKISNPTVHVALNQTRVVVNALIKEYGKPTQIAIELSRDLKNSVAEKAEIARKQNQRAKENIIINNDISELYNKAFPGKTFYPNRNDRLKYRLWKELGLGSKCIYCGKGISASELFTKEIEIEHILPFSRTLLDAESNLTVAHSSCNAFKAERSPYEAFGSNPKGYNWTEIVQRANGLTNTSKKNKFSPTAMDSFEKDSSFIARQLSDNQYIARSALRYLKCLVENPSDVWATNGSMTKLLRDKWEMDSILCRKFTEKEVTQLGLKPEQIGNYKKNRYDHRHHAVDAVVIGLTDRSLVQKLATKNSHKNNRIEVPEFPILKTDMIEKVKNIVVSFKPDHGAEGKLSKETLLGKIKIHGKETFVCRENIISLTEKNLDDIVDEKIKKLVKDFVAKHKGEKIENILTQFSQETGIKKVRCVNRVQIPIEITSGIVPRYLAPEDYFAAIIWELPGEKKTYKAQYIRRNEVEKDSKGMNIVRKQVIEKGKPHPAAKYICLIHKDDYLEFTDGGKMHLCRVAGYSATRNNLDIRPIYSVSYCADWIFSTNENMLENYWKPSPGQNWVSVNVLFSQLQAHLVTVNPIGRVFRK
Put plainly: cleavage_in_vitro. The settings on record: TXTL, PAM NNATTGYN

Sequence “GGAAGAGCAGAGCCUUGGUCUCGUUGCAGGUUGACCGGGAAAGCGGUCAACCUGCUAACAAGGAAACCUUUAGUUUCCGCAAAAUGCUUUUAUAUUCGUUGAGAUUUUUGCGUGAAUAUAGAUAGCACACAAUGCAAAGGGAAAGCUACGGCUUUCCCCCUUUUUUUU / GGAAGAGCAGAGCCTTGGTCTCNNNNNNNN / NNNNNNNNGAGACCAAGGCTCTGCTCTTCC [T2 sgRNA 1 V1 ; T2 protospacer + 8N PAM library (pbPOS T2)]” registered an activity (1-depletion score) of 0.95.
Same read-out and setting: next, “GGAAGAGCAGAGCCUUGGUCUCGUUGCAGGUUGACCGGGAAAGCGGUCAACCUGCUAACAAGGAAACCUUUAGUUUCCGCAAUAUGCUUUAAUAUUCGUUGAGAUUAUUGCGUGAAUAUAGAUAGCACACAAUGCAAAGGGAAAGCUACGGCUUUCCCCCUUUUUUUU / GGAAGAGCAGAGCCTTGGTCTCNNNNNNNN / NNNNNNNNGAGACCAAGGCTCTGCTCTTCC [T2 sgRNA 1 V2 ; T2 protospacer + 8N PAM library (pbPOS T2)]”: 0.94.
With “GGAAGAGCAGAGCCUUGGUCUCGUUGCAGGUUGACCGGGAAAGCGGUCAACCUGCUAACAAGGAAACCUUUAGUUUCCGCAAUAUGCUUUAAUAUUCGUUGAGAUUAUUGCGUGAAUAUAGAUAGCACACAAUGCUUUUU / GGAAGAGCAGAGCCTTGGTCTCNNNNNNNN / NNNNNNNNGAGACCAAGGCTCTGCTCTTCC [T2 sgRNA 1 V3 ; T2 protospacer + 8N PAM library (pbPOS T2)]”, for the setting “terminal hairpin deleted”, the activity (1-depletion score) worked out at 0.95.
“GGAAGAGCAGAGCCUUGGUCUCGUUGCAGGUUGACCGGGAAAGCGGUCAACCUGCUAACAAGGAAACCUUUAGUUUCCGCAAUAUGCUUUAAUAUUCGUUGAGAUUAUUGCGUGAAUAUAGAUUUUU / GGAAGAGCAGAGCCTTGGTCTCNNNNNNNN / NNNNNNNNGAGACCAAGGCTCTGCTCTTCC [T2 sgRNA 1 V4 ; T2 protospacer + 8N PAM library (pbPOS T2)]” registered an activity (1-depletion score) (two last hairpins deleted) of 0.96.
